The target in data set [1] is Las17 polyproline motif (Saccharomyces cerevisiae) (UniProt Q12446). The settings on record: cited from earlier work.
The target of data set [2] is T1, Ede1 (Ede1-3myeGFP / Ede1-3mCherry) (S. cerevisiae, UniProt P34216 1-1381).
T1 construct: Ede1, S. cerevisiae, homolog of mammalian Eps15; expressed from its own locus; also called wild-type Ede1; full-length Ede1; source: S. cerevisiae, chromosomally tagged at the endogenous locus, in living cells; not shown: 3myeGFP, C-terminal, kept; 3mCherry, C-terminal, kept
T1 sequence (looked up): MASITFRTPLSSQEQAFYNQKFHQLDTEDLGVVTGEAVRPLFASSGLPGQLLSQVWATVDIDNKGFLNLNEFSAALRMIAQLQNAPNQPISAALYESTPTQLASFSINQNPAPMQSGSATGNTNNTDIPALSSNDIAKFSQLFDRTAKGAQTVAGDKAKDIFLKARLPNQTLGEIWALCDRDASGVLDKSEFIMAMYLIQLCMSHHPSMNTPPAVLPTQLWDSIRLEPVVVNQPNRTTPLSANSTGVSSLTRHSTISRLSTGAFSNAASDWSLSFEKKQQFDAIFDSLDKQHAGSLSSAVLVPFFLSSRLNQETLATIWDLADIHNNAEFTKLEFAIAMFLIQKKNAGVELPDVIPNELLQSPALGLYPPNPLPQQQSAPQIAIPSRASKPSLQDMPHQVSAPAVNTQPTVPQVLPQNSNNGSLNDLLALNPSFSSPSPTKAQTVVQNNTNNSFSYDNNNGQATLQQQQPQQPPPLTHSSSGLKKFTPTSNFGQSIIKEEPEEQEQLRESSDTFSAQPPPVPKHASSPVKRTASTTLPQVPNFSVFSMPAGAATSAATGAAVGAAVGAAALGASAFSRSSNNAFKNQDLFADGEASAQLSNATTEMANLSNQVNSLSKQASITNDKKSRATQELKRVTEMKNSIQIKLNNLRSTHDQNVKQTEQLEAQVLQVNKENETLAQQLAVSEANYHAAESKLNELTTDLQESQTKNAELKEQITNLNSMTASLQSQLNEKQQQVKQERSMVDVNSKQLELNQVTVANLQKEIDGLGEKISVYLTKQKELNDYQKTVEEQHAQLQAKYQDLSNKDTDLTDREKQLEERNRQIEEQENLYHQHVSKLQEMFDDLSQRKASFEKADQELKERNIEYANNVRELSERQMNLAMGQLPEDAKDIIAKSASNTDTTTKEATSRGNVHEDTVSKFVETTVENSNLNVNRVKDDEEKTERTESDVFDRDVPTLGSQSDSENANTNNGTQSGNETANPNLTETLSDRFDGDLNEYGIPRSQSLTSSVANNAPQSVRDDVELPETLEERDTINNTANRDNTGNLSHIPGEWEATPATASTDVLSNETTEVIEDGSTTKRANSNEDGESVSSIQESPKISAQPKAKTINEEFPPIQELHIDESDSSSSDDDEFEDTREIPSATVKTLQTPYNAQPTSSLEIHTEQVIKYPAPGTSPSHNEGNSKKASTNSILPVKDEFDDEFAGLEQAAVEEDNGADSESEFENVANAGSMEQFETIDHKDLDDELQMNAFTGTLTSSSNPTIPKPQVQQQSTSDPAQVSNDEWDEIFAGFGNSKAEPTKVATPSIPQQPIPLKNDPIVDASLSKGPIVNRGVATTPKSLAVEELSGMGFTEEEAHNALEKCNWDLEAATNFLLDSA
The experiment in a line: fluorescence cross-correlation spectroscopy (FCCS); living yeast cells, observation volume in the cytoplasm; one protein tagged with (3)myeGFP/eGFP and the other with 3mCherry in the same strain; apparent (effective) KD; interactions up to ~1 μM detectable. The note with it: partners not purified.

Data set [3] deals with the molecule itself. The data set is described as follows: FCS molecular brightness (counts per particle per second); living yeast cells, cytoplasm; brightness of GFP-tagged particles compared with 3myeGFP and Ent2-3myeGFP (monomers) or with wild-type Ede1; average of all particles.
The next data set has as its target T2, Apl3 (S. cerevisiae, UniProt P38065 1-1025).
T2 construct: Apl3, subunit of the AP2 complex, S. cerevisiae; also called Apl3-3myeGFP; Apl3-3mCherry; source: chromosomally tagged at the endogenous locus, in the cytoplasm of living S. cerevisiae cells
T2 sequence (looked up): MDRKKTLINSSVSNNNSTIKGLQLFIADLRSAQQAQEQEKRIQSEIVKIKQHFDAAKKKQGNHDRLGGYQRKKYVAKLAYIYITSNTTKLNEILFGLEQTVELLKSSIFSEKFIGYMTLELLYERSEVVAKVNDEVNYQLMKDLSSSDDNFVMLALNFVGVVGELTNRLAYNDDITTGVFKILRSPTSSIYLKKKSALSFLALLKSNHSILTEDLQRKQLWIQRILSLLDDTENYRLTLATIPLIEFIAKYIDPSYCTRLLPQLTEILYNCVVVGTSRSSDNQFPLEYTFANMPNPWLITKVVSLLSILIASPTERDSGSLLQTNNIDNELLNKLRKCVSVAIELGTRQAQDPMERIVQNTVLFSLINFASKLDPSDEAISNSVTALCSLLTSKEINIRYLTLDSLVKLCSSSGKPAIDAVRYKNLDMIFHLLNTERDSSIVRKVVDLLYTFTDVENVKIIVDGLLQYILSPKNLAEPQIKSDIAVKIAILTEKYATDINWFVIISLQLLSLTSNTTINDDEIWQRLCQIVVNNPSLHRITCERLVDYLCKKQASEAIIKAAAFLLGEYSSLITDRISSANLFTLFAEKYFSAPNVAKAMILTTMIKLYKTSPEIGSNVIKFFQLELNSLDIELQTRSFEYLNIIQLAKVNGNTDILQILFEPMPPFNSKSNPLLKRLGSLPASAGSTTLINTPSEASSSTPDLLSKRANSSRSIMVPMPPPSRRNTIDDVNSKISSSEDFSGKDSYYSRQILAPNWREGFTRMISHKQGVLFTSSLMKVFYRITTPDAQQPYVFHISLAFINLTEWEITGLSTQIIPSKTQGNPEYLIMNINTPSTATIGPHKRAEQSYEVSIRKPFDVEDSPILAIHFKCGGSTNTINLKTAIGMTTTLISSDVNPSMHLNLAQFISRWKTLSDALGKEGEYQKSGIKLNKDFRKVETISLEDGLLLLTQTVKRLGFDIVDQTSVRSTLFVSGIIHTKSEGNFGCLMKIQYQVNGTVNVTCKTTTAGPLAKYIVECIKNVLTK
The experiment in a line: fluorescence cross-correlation spectroscopy (FCCS); in the cytoplasm of living yeast cells; first-named protein green (3myeGFP or 1myeGFP; eGFP for Don1), second red (3mCherry); self-interaction in diploid strains with one allele of each colour; apparent or effective KD (Kdeff) from single-cell measurements; only Kdeff values < 1000 nM are shown; values for self-interactions are upper limits. The note with it: partners not purified.

Regarding Sla1 SH3 domains (from UniProt P32790), the Kd in data set [1] was 56 nM.

B1: Syp1 (natural protein, S. cerevisiae, UniProt P25623 1-870, looked up)
chain: MTEQRTKYADSILTTKSPYEATETIRIRLSQVKLLNKDFYLLFKELANLKRNYAQQLRKIIAENEDITKILNAQMIESNVLTPQEMSAFRFNSLGELRNVWDTVIEELKSDLKSSTEYYNTLDQQVVRELKESVENNTSWRESKDLHSKLSKNAASIEHYSKNNENSSHLEEARRQWDQQSPYLFELFETIDYNRLDTLKNCMLRFQTSFSDYLLNTTKECETVMTKFLAFEPQSEIDRFAKDASQYNFQLSSSSKEVVPNNASPASATGARPVSVSNGAANTEREKKSPQKDKRKSAFGNIGHRLASASSSLTHNDLMNNEFSDSTNNSSLKSKKSSHTLRSKVGSIFGRNKTKNKRQQQSSSNSHIQASITETPNNSSTRVSSTATSSIYQKQRRPTYSSSKSNNWTPGEASDTPPLPPHATPKNVDAPVTADTPPAQTFTPSEVPPSTPQQSSPPTAKEPDSSNLPKTVPISISQPPLQPQSKTKPLPVEPASPSISLPTATVDNQPSGQVDSRPLHIRAPALPPSRKQNFIHNRDSQLYDSLPNHGSGATPTSSSLSSIPQERPVSTLSSQITGELRELNPQATGSSTSLVGQSLFQHSSLDTSQFGLNASIAEVLNASFKDGMLQNSQLIGEIALNYLPNSVMNSPLPIGINLRINNGAKFEKVILNQAFIERVAPEEFKVNPSFIDSRTLGAIKYSIKEPIAPIVIHPVWRFESHQASVVLTVKMSPSLPDEISQIVIEDLVVFVNIDGANATSALSKPQGSFSKEKKRITWRFKEPVVLTRNGEGQRLIARFITDGLAHESAKGVITKFTISETDNVALPHSGAGSGITLTCQELDENNPFGGEWLDVNTKRTLTTGNYHGLA
notes: Syp1, S. cerevisiae endocytic adaptor; Each copy carries one of the two tags; also called Syp1-3myeGFP; source: S. cerevisiae, chromosomally tagged at the endogenous locus, in living cells; not shown: 3myeGFP, C-terminal, kept; 3mCherry, C-terminal, kept
Regarding B1, in data set [2], the Kd was found to be 227 nM.

B2: Sla2 (natural protein, S. cerevisiae, UniProt P33338 1-968, looked up)
chain: MSRIDSDLQKALKKACSVEETAPKRKHVRACIVYTWDHQSSKAVFTTLKTLPLANDEVQLFKMLIVLHKIIQEGHPSALAEAIRDRDWIRSLGRVHSGGSSYSKLIREYVRYLVLKLDFHAHHRGFNNGTFEYEEYVSLVSVSDPDEGYETILDLMSLQDSLDEFSQIIFASIQSERRNTECKISALIPLIAESYGIYKFITSMLRAMHRQLNDAEGDAALQPLKERYELQHARLFEFYADCSSVKYLTTLVTIPKLPVDAPDVFLINDVDESKEIKFKKREPSVTPARTPARTPTPTPPVVAEPAISPRPVSQRTTSTPTGYLQTMPTGATTGMMIPTATGAANAIFPQATAQMQPDFWANQQAQFANEQNRLEQERVQQLQQQQAQQELFQQQLQKAQQDMMNMQLQQQNQHQNDLIALTNQYEKDQALLQQYDQRVQQLESEITTMDSTASKQLANKDEQLTALQDQLDVWERKYESLAKLYSQLRQEHLNLLPRFKKLQLKVNSAQESIQKKEQLEHKLKQKDLQMAELVKDRDRARLELERSINNAEADSAAATAAAETMTQDKMNPILDAILESGINTIQESVYNLDSPLSWSGPLTPPTFLLSLLESTSENATEFATSFNNLIVDGLAHGDQTEVIHCVSDFSTSMATLVTNSKAYAVTTLPQEQSDQILTLVKRCAREAQYFFEDLMSENLNQVGDEEKTDIVINANVDMQEKLQELSLAIEPLLNIQSVKSNKETNPHSELVATADKIVKSSEHLRVDVPKPLLSLALMIIDAVVALVKAAIQCQNEIATTTSIPLNQFYLKNSRWTEGLISAAKAVAGATNVLITTASKLITSEDNENTSPEQFIVASKEVAASTIQLVAASRVKTSIHSKAQDKLEHCSKDVTDACRSLGNHVMGMIEDDHSTSQQQQPLDFTSEHTLKTAEMEQQVEILKLEQSLSNARKRLGEIRRHAYYNQDDD
notes: Sla2, S. cerevisiae; Each copy carries one of the two tags; also called Sla2-3myeGFP; source: S. cerevisiae, chromosomally tagged at the endogenous locus, in living cells; not shown: 3myeGFP, C-terminal, kept; 3mCherry, C-terminal, kept
Take B2: the “molecular brightness per particle relative to 3myeGFP” value in data set [3] was determined as 2 fold. In addition, the Kd in data set [2] stood at 590 nM.

B3: Apl1 (natural protein, S. cerevisiae, UniProt P27351 1-700, looked up)
chain: MSDQKVFARYKANEIVTDLQHFGVKKFKSNITRRKNALRKIIANLVLGNYGEMSVLFSELLKFWQIEDDLEVKRICHEYIRVIGALKPQQAREALPFIMDDFKSRDEKLQIMALRTLVLVPVKELSDQAFDCIISLVNHKSPPEQVTRTAIYALLDLDEIDHERVLGLSSILHDIVKAQSSSPEVIVAALHTLYSIHEKNANMEPFRIPLELAFDMLELLPELNEWNKATVLEVLTTSVVPQHYLDTHEMIELALPYLQQVNTYVVLNSLKFIMYLLNYVDVIKETLAEKLSNSVIALLDKPPELQFLVLRNVILLLLSRESSLLRLDISYFFIEYNDPIYIKDTKLECLYLLANKETLPRILEELEQYATDIDIQMSRKSVRAIGNLAVKLDEDSVHDCVAVLLDLLEFGVDYVVQEIISVFRNILRKYPNNFKANVTELVKHTEVVQEPESKNAMIWIITQYSDVIPNYLELFRVFSSNMFSETLEVQFSILNSAIKFFIRSPTKETEELCMDLLKGCIDHENNPDLRDKTLMYWRLLSLTKTSRISNAITFESLKSVLDGELPLIEMNTKLDPTVLEELELNIGTIVSIYLKPVSHIFRLNKTKLLPQSPILNPNKDLLPVVGNSFPPTGANRDRQNSESQSSTKSRKTAMMDDYDKPAEKINQLKGKRKSSSNNPSKLSRKPSTLLRKLSMKRPFS
notes: Apl1, subunit of the AP2 complex, S. cerevisiae; also called Apl1-1myeGFP; Apl1-3mCherry; source: chromosomally tagged at the endogenous locus, in the cytoplasm of living S. cerevisiae cells
For B3, the Kd in the data set with Apl3 amounted to 37 nM.

(Values after article PMC4299599, “Quantification of cytosolic interactions identifies Ede1 oligomers as key organizers of endocytosis” (Molecular Systems Biology, 2014).)
